A word on the stoichiometry N: it is a count of units in the complex or per binding partner.

This data set concerns the molecule itself. The experiment in a line: cryo-EM structure; electron cryotomography and subtomogram averaging of the S-layer on intact N. maritimus cells; 3.3 Å at the centre of the hexamer, about 4.5 Å at the periphery.

B1: Nitrosopumilus maritimus S-layer protein Nmar_1547 (NmSLP) (natural protein)
chain: MAANANLFVSAENSQFDNYMSGPQVIEVVVIDSDINDTDEAKGEPDVTVNGKVLRMVQAVDGNWYGYFADRDQAQIADSTATTADSGLDFGVFCASSSGTAALGFSTTETDGIAIPITIANATATGNGTQTGSSSGGAITTTCAANTLDASTANGTINVVREAKDPVAASGSVSVGQIGLKNGTANSGPNWPFIQLYELNPTGNVVVQYNKGGGVQSTTLTFDTVDQFAELSLDRTVFPRVSQVHATITDLWLNIDPTDEDSWTFATNTKNTTSSFNVDTFYQVFDENGASGGSALTLRTTLSSLMCEDNCVLTLDVDAQSSGTPVVTIQDNGDSILTQLNASSNTNANNASAFGISTETAKLGTGSIPVTITEQGPNSGVFGTYDESDKSVLKITDNAKRGTSASLDYNETPQTILVGFSFASIDIQPVTDEWTSGQEIPVVIVDADQNKNSRADEDLDLNNPDVTLIPALRTGDPFTIDEGGTPSLIFTNGTNGDDSIFDTGAINNTSAGQVGNFTLNINVTRFSSATNITSTESIDTFSKRLISAQTANSSANFDVDFAIIDLGSATLETLKETVVDEDNTAVGFNFFNYDVRSLGADTVSIALLNTTGNILPWVNNDTRNVDKNNAILLVSNSTNSQAYVDLTNAVSDAVYGSTNTDSNVNIGFAMYFTGVGDLAAKEVIVMDFFSFGFTDDGVQSSERFANQIIRIEAEETGDNTSTFEGSLEYVMVNQINIQDAGTFSGITPIADDPSFIVIEDLTDEDAPRVNYNDLGADGVTTPVSDQEEAPSHSGVVSLNADSYKIADTVVITVEDLDLNVDSDLIDIFTVVSDNSKATDDAVGSATTQSLSFGELGRLLDVTFDDVIWSTPDGANNTATGNDSDTCSTELSNAGITDTGLGATGFTLVETGAATGVFVGDFQIPSFWCRVSDTTTTPYTYAGDEETTTGLDIEVNYVDFRDASGEIVEVGDSAGVRANTGSVSLDRTVYPVPFGTIADSSKAANAAPNGRSVFPIHATGITSTIDSTEELPTGDLTIHVRINDPDFDENPAGEDAMDQDNALKISVIRGSDSVVLGYAGASERTGKIDVGGNNGTISNIRSFGEMDEIAPDAGIFELDVNIKFTDGPASAQCNSHDTLYTALDGTTGKADTNRFDDGAASGQEYCILQGDILQVEYTDPADASGDANTVTDSATFDLRNGVLQSDKSVYIIGSDMILTLIEPDFDLDNDSAETYDLDLIEWDSDAATTTMGNKGVTGAAAAFDPEPTDFRETGDSTGIFQIVIEIPESLSNDKLERGEEIILEYTDWGPSGSDYVGDEDEDVNLTIYTSNFGATVELDQKVYSWTDKVYITIVAPDHNFDSDLVDEIGETDSDPIKVSTRGFDLDNYKLVETGTDTGIFTGEVILTGFTAHDADGDGNTGDATGTTSGSGPTDGLLATDDDDGLTVSFEFSEDETIVGSALIRWNIGEVQWLEASYPASGTGVVRVIDPDMNLDPEAVDNFEVDVWSDSDAGGIDLTVTETNEATGIFEGTVFFTTLDESSGHRLRVSEGDTVTAEYEDNTLPDPYTTADELDITATSLIGTVVPPLERAPAANLRTVDAFGNSLDSVSVDQQVQISADLANGQDREQSFAYLVQIQDANGVTVSLAWITGSLSSGQSFSPALSWIPTEAGTYTATAFVWESVDNPTALSPPVSTTVNVS
modifications: 17 N-glycans per monomer on asparagine residues followed by a threonine or serine at the +2 position (positions not given)
As to B1, the “stoichiometry N” value came out at 6.

Source of the values: paper PMC11153153, “Membraneless channels sieve cations in ammonia-oxidizing marine archaea” (Nature, 2024).
